# Laboratory results published in patent US11278600B2, “Human alpha-galactosidase variants” (Codexis, Inc., priority 2014, dated 2022).
# B1: 3 (protein)
# chain: LDNGLARTPTMGWLHWERFMCNLDCQEEPDSCISEKLFMEMADLMVSDGWKDAGYEYLCIDDCWMAPQRDSEGRLQADPQRFPHGIRQLANYVHSKGLKLGIYADVGNKTCAGFPGSFGYYDIDAQTFADWGVDLLKFDGCYCDSLENLADGYKHMSLALNRTGRSIVYSCEWPLYMWPFQKPNYTEIRQYCNHWRNFADIDDSWKSIKSILDWTSFNQERIVDVAGPGGWNDPDMLVIGNFGLSWNQQVTQMALWAIMAAPLFMSNDLRHISPQAKALLQDKDVIAINQDPLGKQGYQLRQGDNFEVWERPLSGLAWAVAMINRQEIGGPRSYTIAVASLGKGVACNPACFITQLLPVKRKLGFYEWTSRLRSHINPTGTVLLQLENTMQMSLKDLL
# modifications: Synthetic Polypeptide sequence of Variant No. 3 of mature Human GLA
# B2: 4 (protein)
# chain: LDNGLARTPTMGWLHWERFMCNLDCQEEPDSCISEKLFMEMADLMVSDGWKDAGYEYLCIDDCWMAPQRDSEGRLQADPQRFPHGIRQLANYVHSKGLKLGIYADVGNKTCAGFPGSFGYYDIDAQTFADWGVDLLKFDGCYCDSLENLADGYKHMSLALNRTGRSIVYSCEWPLYMWPFQKPNYTEIRQYCNHWRNFADIDDSWKSVKSILDWTSFNQERIVDVAGPGGWNDPDMLVIGNFGLSWDQQVTQMALWAIMAAPLFMSNDLRHISPQAKALLQDKDVIAINQDPLGKQGYRLRKGDNFEVWERPLSGLAWAVAMINRQEIGGPRSYTIAVASLGKGVACNPACFITQLLPVKRKLGFYEWTSRLKSHVNPTGTVLLQLENTMQMSLKDLL
# modifications: Synthetic Polypeptide sequence of Variant No. 4 of mature Human GLA
# B3: 5 (protein)
# chain: LDNGLARTPTMGWLHWERFMCNLDCQEEPDSCISEKLFMEMADLMVSDGWKDAGYEYLCIDDCWMAPQRDSEGRLQADPQRFPHGIRQLANYVHSKGLKLGIYADVGNKTCAGFPGSFGYYDIDAQTFADWGVDLLKFDGCYCDSLENLADGYKHMSLALNRTGRSIVYSCEWPLYMWPFQKPNYTEIRQYCNHWRNFADIDDSWKSVKSILDWTSFNQERIVDVAGPGGWNDPDMLVIGNFGLSWNQQVTQMALWAIMAAPLFMSNDLRHISPQAKALLQDKDVIAINQDPLGKQGYQLRQGDNFEVWERPLSGLAWAVAMINRQEIGGPRSYTIAVASLGKGVACNPACFITQLLPVKRKLGFYEWTSRLKSHINPTGTVLLQLENTMQMSLKDLL
# modifications: Synthetic Polypeptide sequence of Variant No. 5 of mature Human GLA
# B4: 6 (protein)
# chain: LDNGLARTPTMGWLHWERFMCNLDCQEEPDSCISEKLFMEMADLMVSDGWKDAGYEYLCIDDCWMAPQRDSEGRLQADPQRFPHGIRQLANYVHSKGLKLGIYADVGNKTCAGFPGSFGYYDIDAQTFADWGVDLLKFDGCYCDSLENLADGYKHMSLALNRTGRSIVYSCEWPLYMWPFQKPNYTEIRQYCNHWRNFADIDDSWKSVKSILDWTSFNQERIVDVAGPGGWNDPDMLVIGNFGLSWNQQVTQMALWAIMAAPLFMSNDLRHISPQAKALLQDKDVIAINQDPLGKQGYQLRQGDNFEVWERPLSGLAWAVAMINRQEIGGPRSYTIAVASLGKGVACNPACFITQLLPVKRKLGFYEWTSRLKSHVNPTGTVLLQLENTMQMSLKDLL
# modifications: Synthetic Polypeptide sequence of Variant No. 6 of mature Human GLA
# B5: 7 (protein)
# chain: LDNGLARTPTMGWLHWERFMCNLDCQEEPDSCISEKLFMEMADLMVSDGWKDAGYEYLCIDDCWMAPQRDSEGRLQADPQRFPHGIRQLANYVHSKGLKLGIYADVGNKTCAGFPGSFGYYDIDAQTFADWGVDLLKFDGCYCDSLENLADGYKHMSLALNRTGRSIVYSCEWPLYMWPFQKPNYTEIRQYCNHWRNFADIDDSWKSIKSILDWTSFNQERIVDVAGPGGWNDPDMLVIGNFGLSWDQQVTQMALWAIMAAPLFMSNDLRHISPQAKALLQDKDVIAINQDPLGKQGYRLRKGDNFEVWERPLSGLAWAVAMINRQEIGGPRSYTIAVASLGKGVACNPACFITQLLPVKRKLGFYEWTSRLKSHVNPTGTVLLQLENTMQMSLKDLL
# modifications: Synthetic Polypeptide sequence of Variant No. 7 of mature Human GLA
# B6: 8 (protein)
# chain: LDNGLARTPTMGWLHWERFMCNLDCQEEPDSCISEKLFMEMADLMVSDGWKDAGYEYLCIDDCWMAPQRDSEGRLQADPQRFPHGIRQLANYVHSKGLKLGIYADVGNKTCAGFPGSFGYYDIDAQTFADWGVDLLKFDGCYCDSLENLADGYKHMSLALNRTGRSIVYSCEWPLYMWPFQKPNYTEIRQYCNHWRNFADIDDSWKSIKSILDWTSFNQERIVDVAGPGGWNDPDMLVIGNFGLSWDQQVTQMALWAIMAAPLFMSNDLRHISPQAKALLQDKDVIAINQDPLGKQGYQLRKGDNFEVWERPLSGLAWAVAMINRQEIGGPRSYTIAVASLGKGVACNPACFITQLLPVKRKLGFYEWTSRLKSHINPTGTVLLQLENTMQMSLKDLL
# modifications: Synthetic Polypeptide sequence of Variant No. 8 of mature Human GLA
# Assays:
# Assay type in all cases: biochemical
# [1] = HTP-analysis of yeast culture supernatants, no challenge (MUGal hydrolysis); details: activity of the variant/activity of WT GLA (SEQ ID NO: 5), yeast supernatant
# Description: (§1) Yeast (INVSc1) cells transformed with vectors expressing GLA and GLA variants using the lithium acetate method were selected on SD-Ura agar plates. After 72 h incubation at 30° C. colonies were placed into the wells of Axygen® 1.1 ml 96-well deep well plates filled with 200 μl/well SD-Ura broth (2 g/L SD-Ura, 6.8 g/L yeast nitrogen base without amino acids [Sigma Aldrich]), 3.06 g/L sodium dihydrogen phosphate, 0.804 g/L disodium hydrogen phosphate, pH 6.0 supplemented with 6% glucose. The cells were allowed to grow for 20-24 hours in a Kuhner shaker (250 rpm, 30° C., and 85% relative humidity). Overnight culture samples (20 μL) were transferred into Corning Costar® 96-well deep plates filled with 380 µL of SD-ura broth supplemented with 2% glucose. The plates were incubated for 66-84 h in a Kuhner shaker (250 rpm, 30° C., and 85% relative humidity). The cells were then pelleted (4000 rpm×20 min), and the supernatants isolated and stored at 4° C. prior to analysis.
# GLA variant activity was determined by measuring the hydrolysis of 4-methylumbelliferyl α-D-galactopyranoside (MUGal). For this assay, 5-50 μL, of yeast culture supernatant produced as described above, was mixed with 0-45 μL, of McIlvaine Buffer (McIlvaine, J. Biol. Chem., 49:183-186 [1921]), pH 4.8 and 50 μL of 2 mM MUGal in 50 mM citrate, 200 mM KCl, pH 4.6 in a 96-well, black, opaque bottom plate. The reactions were mixed briefly and incubated at 37° C. for 30-180 minutes, prior to quenching with 100 μL, of 1 M sodium carbonate. Hydrolysis was analyzed using a SpectraMax® M2 microplate reader monitoring fluorescence (Ex. 355 nm, Em. 448 nm).
# [2] = HTP-analysis of supernatants pretreated with base (MUGal hydrolysis); details: challenge at pH 7.0; activity of the variant/activity of WT GLA (SEQ ID NO: 5); yeast supernatant
# Description: as §1
# GLA variants were challenged with basic (neutral) buffer to simulate the pHs that the variants encounter in the blood following their administration to a patient. First, 50 μL of yeast culture supernatant and 50 uL of McIlvaine buffer (pH 7.0-8.2) or 200 mM sodium bicarbonate (pH 9.1-9.7) were added to the wells of a 96-well round bottom plate. The plates were sealed and incubated at 37° C. for 1-18 h. For the assay, 10-50 μL of basic-pH-challenged sample was mixed with 0-40 μL, of McIlvaine buffer pH 4.8, 25 μL, of 1 M citrate buffer pH 4.3 and 25 μL, of 4 mM MUGal in McIlvaine buffer pH 4.8. The reactions were mixed briefly and incubated at 37° C. for 30-180 minutes, prior to quenching with 100 μL, of 1 M sodium carbonate. Hydrolysis was analyzed using a SpectraMax® M2 microplate reader monitoring fluorescence (Ex. 355 nm, Em. 448 nm).
# [3] = HTP-analysis of supernatants pretreated with acid (MUGal hydrolysis); details: challenge at pH 4.3; activity of the variant/activity of WT GLA (SEQ ID NO: 5); yeast supernatant
# Description: as §1
# GLA variants were challenged with acidic buffer to simulate the extreme pHs that the variants may encounter in lysosomes. First, 50 μL of yeast culture supernatant and 50 uL of McIlvaine buffer (pH 3.3-4.3) were added to the wells of a 96-well round bottom plate. The plates were sealed with a PlateLoc Thermal Microplate Sealer (Agilent) and incubated at 37° C. for 1-3 h. For the assay, 10-50 uL of acid-pH-challenged sample was mixed with 0-40 μL, of McIlvaine buffer pH 4.8, 25 μL, of 1 M citrate buffer pH 4.3 and 25 μL, of 4 mM MUGal in McIlvaine buffer pH 4.8. The reactions were mixed briefly and incubated at 37° C. for 30-180 minutes, prior to quenching with 100 μL, of 1 M sodium carbonate. Hydrolysis was analyzed using a SpectraMax® M2 microplate reader monitoring fluorescence (Ex. 355 nm, Em. 448 nm).
Molecule,Relative Activity of GLA Variants After No Challenge (NC) [1],Relative Activity of GLA Variants After Challenge at pH 7.0 [2],Relative Activity of GLA Variants After Challenge at pH 4.3 [3]
B1,+ (+ = 0.5 to 1.5 relative activity over WT GLA (SEQ ID NO: 5)),+ (+ = 0.5 to 1.5 relative activity over WT GLA (SEQ ID NO: 5)),+ (+ = 0.5 to 1.5 relative activity over WT GLA (SEQ ID NO: 5))
B2,+ (+ = 0.5 to 1.5 relative activity over WT GLA (SEQ ID NO: 5)),+ (+ = 0.5 to 1.5 relative activity over WT GLA (SEQ ID NO: 5)),+++ (+++ = >2.5 relative activity over WT GLA (SEQ ID NO: 5))
B3,++ (++ = >1.5 to 2.5 relative activity over WT GLA (SEQ ID NO: 5)),++ (++ = >1.5 to 2.5 relative activity over WT GLA (SEQ ID NO: 5)),++ (++ = >1.5 to 2.5 relative activity over WT GLA (SEQ ID NO: 5))
B4,+ (+ = 0.5 to 1.5 relative activity over WT GLA (SEQ ID NO: 5)),+ (+ = 0.5 to 1.5 relative activity over WT GLA (SEQ ID NO: 5)),+++ (+++ = >2.5 relative activity over WT GLA (SEQ ID NO: 5))
B5,+ (+ = 0.5 to 1.5 relative activity over WT GLA (SEQ ID NO: 5)),+ (+ = 0.5 to 1.5 relative activity over WT GLA (SEQ ID NO: 5)),++ (++ = >1.5 to 2.5 relative activity over WT GLA (SEQ ID NO: 5))
B6,++ (++ = >1.5 to 2.5 relative activity over WT GLA (SEQ ID NO: 5)),+++ (+++ = >2.5 relative activity over WT GLA (SEQ ID NO: 5)),+++ (+++ = >2.5 relative activity over WT GLA (SEQ ID NO: 5))
